According to article PMC4742702 (mBio, 2016):

Tests used:
[1] = target: trypsin-cleaved Tuc2009 RBP head domain (in the nano-L06 complex) (Lactococcus phage Tuc2009); assay: crystal structure
[2] = target: Tuc2009 BppL (RBP) as in the tripod (Lactococcus phage Tuc2009); assay: crystal structure
[3] = target: BppUct (C-terminal portion of Tuc2009 BppU, residues 194 to 322) (Lactococcus phage Tuc2009); assay: crystal structure
[4] = target: serendipitously cleaved BppL head domain (residues 52 to 173) in the tripod crystal (Lactococcus phage Tuc2009); assay: crystal structure
[5] = target: T1, phage Tuc2009 receptor binding protein (RBP, BppL, ORF53) (Lactococcus phage Tuc2009); assay: BLI
T1 chain: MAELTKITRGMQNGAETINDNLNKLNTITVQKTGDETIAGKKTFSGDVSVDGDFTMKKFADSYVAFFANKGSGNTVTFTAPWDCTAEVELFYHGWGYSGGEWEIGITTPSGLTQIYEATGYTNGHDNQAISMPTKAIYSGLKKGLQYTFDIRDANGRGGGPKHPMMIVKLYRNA

[6] = target: T2, Tuc2009 tripod BppUctAL complex (BppUct/BppA/BppL) (Lactococcus phage Tuc2009); assay: BLI
T2 chain 1: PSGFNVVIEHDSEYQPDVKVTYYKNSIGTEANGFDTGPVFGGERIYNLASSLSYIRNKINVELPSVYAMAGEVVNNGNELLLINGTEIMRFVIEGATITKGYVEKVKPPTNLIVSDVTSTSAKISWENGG
T2 chain 2: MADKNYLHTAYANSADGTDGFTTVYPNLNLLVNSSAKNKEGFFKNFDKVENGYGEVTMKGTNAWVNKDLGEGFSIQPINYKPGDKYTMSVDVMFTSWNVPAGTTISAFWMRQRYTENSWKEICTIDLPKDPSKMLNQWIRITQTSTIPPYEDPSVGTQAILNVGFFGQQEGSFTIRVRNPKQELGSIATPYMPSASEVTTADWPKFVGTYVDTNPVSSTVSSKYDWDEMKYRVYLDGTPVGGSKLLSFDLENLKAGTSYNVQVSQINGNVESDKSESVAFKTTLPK
T2 chain 3: T1 chain

## trypsin-cleaved Tuc2009 RBP head domain (in the nano-L06 complex) (domain or fragment)
[1]
  stoichiometry N: 3

## Tuc2009 BppL (RBP) as in the tripod (natural protein)
[2]
  stoichiometry N: 3

## BppUct (C-terminal portion of Tuc2009 BppU, residues 194 to 322) (domain or fragment)
[3]
  stoichiometry N: 3

## serendipitously cleaved BppL head domain (residues 52 to 173) in the tripod crystal (domain or fragment)
[4]
  stoichiometry N: 3

B1: nanobody nano-L06 (VHH)
VHH: QVQLVESGGGSVQAGGSLRLSCTASGFTFDDSDMGWYHQAPGNECELVSAIFSDGSTYYADSVKGRFTISRDNAKNTVYLQMNSLKPEDTAMYYCAAATTTVASPPVRHVCNGYWGQGTQVTVSS
[5]
  Kd: 9.1 ± 0.7 nM
[6]
  Kd: 9.1 ± 0.6 nM
